Source: the supplement of paper PMC11246515
± gives the standard deviation of the averaged measurements.

Experiment: total protein half-life in vivo (active degradation + dilution); higher = more stable protein
[1] = E. coli NCM3722 delta-clpP delta-lon delta-hslV, growth: N-lim chemostat, doubling time 6 h
[2] = E. coli NCM3722 delta-clpP, growth: N-lim chemostat, doubling time 6 h
[3] = E. coli NCM3722 delta-hslV, growth: N-lim chemostat, doubling time 6 h
[4] = E. coli NCM3722 delta-lon, growth: N-lim chemostat, doubling time 6 h
[5] = E. coli NCM3722 delta-smpB, growth: N-lim chemostat, doubling time 6 h
[6] = wild type E. coli NCM3722, growth: C-lim chemostat, doubling time 3 h
[7] = wild type E. coli NCM3722, growth: C-lim chemostat, doubling time 6 h
[8] = wild type E. coli NCM3722, growth: C-lim chemostat, doubling time 12 h
[9] = wild type E. coli NCM3722, growth: N-lim chemostat, doubling time 6 h
[10] = wild type E. coli NCM3722, growth: N-lim chemostat, doubling time 12 h
[11] = wild type E. coli NCM3722, growth: P-lim chemostat, doubling time 6 h
[12] = wild type E. coli NCM3722, growth: P-lim chemostat, doubling time 12 h

Sequence | total protein half-life in vivo [1] [h] | total protein half-life in vivo [2] [h] | total protein half-life in vivo [3] [h] | total protein half-life in vivo [4] [h] | total protein half-life in vivo [5] [h] | total protein half-life in vivo [6] [h] | total protein half-life in vivo [7] [h] | total protein half-life in vivo [8] [h] | total protein half-life in vivo [9] [h] | total protein half-life in vivo [10] [h] | total protein half-life in vivo [11] [h] | total protein half-life in vivo [12] [h]
MKLNIRAQTAQNQHNNSPIVLVHGLFGSLDNLGVLARDLVNDHNIIQVDMRNHGLSPRDPVMNYPAMAQDLVDTLDAQQIDKATFIGHSMGGKAVMALTALASDRIDKLVAIDIAPVDYHVRRHDEIFAAINAVSESDAQTRQQAAAIMRQHLNEEGVIQFLLKSFVDGEWRFNVPVLWDQYPHIVGWEKIPAWDHPALFIPGGNSPYVSEQYRDDLLAQFPQARAHVIAGAGHWVHAEKPDAVLRAIRRYLND | 5.19 ± 0.27 | 5.13 ± 0.26 | 5.14 ± 0.17 | 5.82 ± 1.4 | 5.07 ± 0.61 | 3.04 ± 0.12 | 5.74 ± 0.4 | 9.16 ± 2.6 | 5.02 ± 0.39 | 10 ± 1.1 | 6.53 ± 0.95 | 12.4 ± 0.16
MNVFNPAQFRAQFPALQDAGVYLDSAATALKPEAVVEATQQFYSLSAGNVHRSQFAEAQRLTARYEAAREKVAQLLNAPDDKTIVWTRGTTESINMVAQCYARPRLQPGDEIIVSVAEHHANLVPWLMVAQQTGAKVVKLPLNAQRLPDVDLLPELITPRSRILALGQMSNVTGGCPDLARAITFAHSAGMVVMVDGAQGAVHFPADVQQLDIDFYAFSGHKLYGPTGIGVLYGKSELLEAMSPWLGGGKMVHEVSFDGFTTQSAPWKLEAGTPNVAGVIGLSAALEWLADYDINQAESWSRSLATLAEDALAKRPGFRSFRCQDSSLLAFDFAGVHHSDMVTLLAEYGIALRAGQHCAQPLLAELGVTGTLRASFAPYNTKSDVDALVNAVDRALELLVD | 4.06 ± 0.23 | 3.13 ± 0.13 | 3.71 ± 0.079 | 4.38 ± 0.57 | 3.52 ± 0.088 | 2.97 ± 0.082 | 5.59 ± 0.13 | 10.8 ± 2.4 | 4.11 ± 0.22 | 6.8 ± 0.74 | 5.86 ± 0.26 | 13.3 ± 3.4
MSIQNEMPGYNEMNQYLNQQGTGLTPAEMHGLISGMICGGNDDSSWLPLLHDLTNEGMAFGHELAQALRKMHSATSDALQDDGFLFQLYLPDGDDVSVFDRADALAGWVNHFLLGLGVTQPKLDKVTGETGEAIDDLRNIAQLGYDEDEDQEELEMSLEEIIEYVRVAALLCHDTFTHPQPTAPEVQKPTLH [P0A8C4] | > 8 | 4.56 ± 0.28 | 3.63 ± 0.19 | 3.96 ± 0.8 | 3.76 ± 0.7 | 2.648 ± 0.026 | 5.18 ± 0.36 | 8.97 ± 0.18 | 3.86 ± 0.19 | 5.64 ± 1 | 5.02 ± 1.2 | 9.3
MKNIVPDYRLDMVGEPCPYPAVATLEAMPQLKKGEILEVVSDCPQSINNIPLDARNHGYTVLDIQQDGPTIRYLIQK [P0AA31] | – | – | – | – | – | 3.04 ± 0.69 | 5.2 ± 0.98 | 6.03 | – | – | – | –
MSVIAQAGAKGRQLHKFGGSSLADVKCYLRVAGIMAEYSQPDDMMVVSAAGSTTNQLINWLKLSQTDRLSAHQVQQTLRRYQCDLISGLLPAEEADSLISAFVSDLERLAALLDSGINDAVYAEVVGHGEVWSARLMSAVLNQQGLPAAWLDAREFLRAERAAQPQVDEGLSYPLLQQLLVQHPGKRLVVTGFISRNNAGETVLLGRNGSDYSATQIGALAGVSRVTIWSDVAGVYSADPRKVKDACLLPLLRLDEASELARLAAPVLHARTLQPVSGSEIDLQLRCSYTPDQGSTRIERVLASGTGARIVTSHDDVCLIEFQVPASQDFKLAHKEIDQILKRAQVRPLAVGVHNDRQLLQFCYTSEVADSALKILDEAGLPGELRLRQGLALVAMVGAGVTRNPLHCHRFWQQLKGQPVEFTWQSDDGISLVAVLRTGPTESLIQGLHQSVFRAEKRIGLVLFGKGNIGSRWLELFAREQSTLSARTGFEFVLAGVVDSRRSLLSYDGLDASRALAFFNDEAVEQDEESLFLWMRAHPYDDLVVLDVTASQQLADQYLDFASHGFHVISANKLAGASDSNKYRQIHDAFEKTGRHWLYNATVGAGLPINHTVRDLIDSGDTILSISGIFSGTLSWLFLQFDGSVPFTELVDQAWQQGLTEPDPRDDLSGKDVMRKLVILAREAGYNIEPDQVRVESLVPAHCEGGSIDHFFENGDELNEQMVQRLEAAREMGLVLRYVARFDANGKARVGVEAVREDHPLASLLPCDNVFAIESRWYRDNPLVIRGPGAGRDVTAGAIQSDINRLAQLL | 3.69 ± 0.6 | 2.74 ± 0.12 | 2.95 ± 0.31 | 3.25 ± 0.14 | 3.01 ± 0.38 | 3.08 ± 0.22 | 4.89 ± 0.2 | 9.3 ± 0.67 | 2.79 ± 0.053 | 4.57 ± 0.19 | 6 ± 0.21 | 11.1 ± 0.36
MAMFGFPHWQLKSTSTESGVVAPDERLPFAQTAVMGVQHAVAMFGATVLMPILMGLDPNLSILMSGIGTLLFFFITGGRVPSYLGSSAAFVGVVIAATGFNGQGINPNISIALGGIIACGLVYTVIGLVVMKIGTRWIERLMPPVVTGAVVMAIGLNLAPIAVKSVSASAFDSWMAVMTVLCIGLVAVFTRGMIQRLLILVGLIVACLLYGVMTNVLGLGKAVDFTLVSHAAWFGLPHFSTPAFNGQAMMLIAPVAVILVAENLGHLKAVAGMTGRNMDPYMGRAFVGDGLATMLSGSVGGSGVTTYAENIGVMAVTKVYSTLVFVAAAVIAMLLGFSPKFGALIHTIPAAVIGGASIVVFGLIAVAGARIWVQNRVDLSQNGNLIMVAVTLVLGAGDFALTLGGFTLGGIGTATFGAILLNALLSRKLVDVPPPEVVHQEP | – | 4.84 ± 1.8 | 3.33 ± 1.9 | > 8 | 3.66 ± 0.6 | – | – | – | 3.82 | 5.58 ± 0.86 | – | –
MSQLNSVWVFSDNPERYAELFGGAQQWGQQVYAIVQNTDQAQAVMPYGPKCLYVLAQNDALQRTENYAESIAALLKDKHPAMLLLAATKRGKALAARLSVQLNAALVNDATAVDIVDGHICAEHRMYGGLAFAQEKINSPLAIITLAPGVQEPCTSDTSHQCPTETVPYVAPRHEILCRERRAKAASSVDLSKAKRVVGVGRGLAAQDDLKMVHELAAVLNAEVGCSRPIAEGENWMERERYIGVSGVLLKSDLYLTLGISGQIQHMVGGNGAKVIVAINKDKNAPIFNYADYGLVGDIYKVVPALISQLSR | 5.37 ± 0.057 | – | 4.24 | – | – | – | – | – | – | 6.04 | – | –
